8 substances from patent US20120028900A1 can be followed below.

A word on the Kd: it is the concentration at which binding is half-saturated. A higher Kd goes with lower affinity. One may read the koff as the first-order rate constant of dissociation. Low readings indicate slow dissociation, high ones fast dissociation. One may read the kon as the rate constant with which the complex forms. High values mean fast association, low ones slow association.

Data set [1] addresses A1/A3-C1-C2 heterodimer of thrombin-cleaved FVIII (human) (UniProt P00451). Kind of data set: optical biosensor, after thrombin cleavage of purified protein.
In the next data set the target is wild-type FVIII (human) (UniProt P00451). Kind of data set: cell-based or functional assay.
Data set [2] has as its target IR8 (90/b/73 R336I/R562K/R740A; del795-1688/Arg336Iso/Arg562Lys/Arg740Ala) (human) (UniProt P00451). Kind of data set: cell-based or functional assay.
The target in data set [3] is von Willebrand factor (vWF) (human) (UniProt P04275). Kind of data set: ELISA and affinity biosensor analysis. A general note: ELISA stands for enzyme-linked immunosorbent assay.
For data set [4] the target is unchanged. Kind of data set: FVIII-vWF binding ELISA; anti-A2 domain trap, vWF from FVIII-deficient plasma, peroxidase anti-vWF detection.
The target is the same in data set [5]. In words: summary of ELISA and biosensor results.
For data set [6] the target is unchanged. In words: in vitro binding to vWF; method not given.
For data set [7], the target named is FVIII mutant M/F 2199/2200 W/W (UniProt P00451).
Data set [8] has as its target FVIII mutant M/F/L 2199/2200/2252 W/W/S (UniProt P00451).
Data set [9] addresses FVIII mutant L/L 2251/2252 L/S (L2252S) (UniProt P00451).
In data set [10] the target is IR8 (90/b/73 R336I/R562K/R740A; del795-1688/Arg336Iso/Arg562Lys/Arg740Ala) (human) (UniProt P00451). In words: biosensor; IR8 (30 nM) captured on immobilised Mab NMC-VIII/5, vWF added at 10 nM.

Regarding “A2 subunit of thrombin-cleaved R698L B-domainless FVIII (from UniProt P00451 392-759)”, the fold increased rate of A2 subunit dissociation compared to a B domainless FVIII control in [1] is 2 fold.
On the same count and under the same terms, in the case of “A2 subunit of thrombin-cleaved R698W B-domainless FVIII (from UniProt P00451 392-759)” it was 3 fold.
“ESH8, mouse monoclonal anti-light chain factor VIII antibody (American Diagnostica)”: the % Of Initial Activity, +ESH8 (APTT after 4 hour incubation at 37 C with FVIII-deficient plasma) with wild-type FVIII (human) is 29%; in data set [2], 120%.
“IR8 (90/b/73 R336I/R562K/R740A; del795-1688/Arg336Iso/Arg562Lys/Arg740Ala) (from UniProt P00451 20-812; P00451 1708-2351)” returned a fold reduced affinity compared to rFVIII in [3] of 20 fold. The fold lower binding affinity compared to wild-type FVIII in [4] was determined as 10 fold. For the same substance, the fold lower affinity than FVIII WT in data set [5] was greater than 10 fold.
“IR8/ESH8 complex (from UniProt P00451 20-812; P00451 1708-2351)”: the fold lower binding affinity compared to wild-type FVIII in data set [4] turned out to be 2 fold. Also, the Kd in data set [6] stood at 1.3 nM.
For the substance factor IXa, the “apparent affinity for factor IXa, Xase assay with 15% PS” value in data set [7], in data set [8] and in [9] was “reduced 5-fold” throughout. In addition, the “apparent affinity of factor IXa, Xase assay with saturating PL, 1000 uM” value in data set [7], in [8] and in [9] was “decreased approximately 4-fold” in each case.
In data set [10], “von Willebrand factor (vWF) (from UniProt P04275 764-2813)” displayed a Kd of 29.6 nM, a koff of 0.0042 s⁻¹ and a kon of 140000 M⁻¹ s⁻¹.
In the case of “wild-type FVIII (from UniProt P00451 20-2351)”, in data set [6], the Kd stood at 0.3 nM.
